According to patent publication US20250250357A1 (NANJING ZAIMING PHARMACEUTICAL, published 2025):

B1: S009-F8-7.5 (antibody, human IgG1, kappa, V domains shown)
VH: DVQLQESGPGLVKPSQSLSLTCSVTGYSITSGYYWNWIRQFPGNKLEWMAYIRYDGSNNYNPSLKNRISIIRDTSKNQFFLRLNSVTTEDTATYYCAKSYYGMDDWGQGISVTVSS
VL: DIQMTQSPASLSASVGETVTITCRTSGDIHNYLAWYQQKQGKSPQLLVYKAKTLENGVPSRFTGSGSGTQFSLKIDSLQPEDFGTYYCQHFWTTPYTFGGGTKLEIKR
notes: human-murine chimeric antibody, human IgG1/kappa constant regions
B2: S009-F8-27.1 (antibody, human IgG1, kappa, V domains shown)
VH: EVQLVESGGGLVKPGGSLKLSCAASGFTFSSYAMSWVRQTPEKRLEWVATISDGGNYTYYPDNVKGRFTISRDNAKNNLYLQMSHLKSEDTAMYYCAGDRGYPYAMDSWGQGTSVTVSS
VL: NIMMTQSPSSLAVSAGEKVTMSCKSSQSVLYSSNQKNYLAWYQQKPGQSPKLLIYWASTRESGVPDRFTGSGSGTDFTLTISNVHAEDLAVYYCHQYLSSLTFGAGTKLELKR
notes: as for B1
B3: S009-F8-4.5 (antibody, human IgG1, kappa, V domains shown)
VH: QVQLQQPGAELVKPGASVKLSCKASGYTFTIYWMHWVKQRPGQGLEWIGMIHPNSGNTNYNEKFKSKATLTVDKSSSTAYMQLSSLTSEDSAVYYCSLIHWYFDVWGTGTTVTVSS
VL: QIVLTQSPAIMSASPGEKVTMTCSASSSVSYMYWYQQKPGSSPRLLIYDTSNLASGVPVRFSGSGSGTSYSLTISRMEAEDAATYYCQQWSSYPLTFGAGTKLELKR
notes: as for B1
B4: S009-F8-18.9 (antibody, human IgG1, kappa, V domains shown)
VH: EFQLQQSGPELVKPGASVKISCKASGYSFTDYNMNWVKQSNGKSLEWIGIINPNYGTTSYNQKFKGRATLTVDQSSSTAYVQLNSLTSEDSAVYYCARGGYDNEAMDYWGQGTSVTVSS
VL: QIVLTQSPAIMSASPGEKVTMTCSASSSVSYMHWYQQKSGTSPKRWIYDTSKLASGVPARFSGSGSGTSYSLTISSMEAEDAATYYCQQWSSNPPTFGAGTKLELKR
notes: as for B1
B5: S009-F8-19.21 (antibody, human IgG1, kappa, V domains shown)
VH: EFQLQQSGPELVKPGASVKISCKTSGYSFTDYNMNWVKQSNGKSLEWIGVINPNYGTTGYNQKFKGKATLTVDQSSSTAYMQLNSLTSEDSAVYYCARGGYDGEAMDYWGHGTSVTVSS
VL: QIVLTQSPAIMSASPGEKVTMTCSASSSVNYMHWYQQKSGTSPKRWIYDTSKLASGVPARFSGSGSGTSYSLTISSMEAEDAATYYCQQWSSYPPTFGGGTKLEIKR
notes: as for B1
B6: S009-F8-12.13 (antibody, human IgG1, kappa, V domains shown)
VH: QVQLQQPGAELVKPGASVKLSCKASGYTFTSYWMHWVKQRPGQGLEWIGMIHPNSGSTNYNEKFKSKATLTVDKSSSTAYMQLSSLTSEDSAVYYCARRTPIITLVGHWYFDVWGTGTTVTVSS
VL: DIVMTQSHKFMSTSVGDRVSITCKASQDVGTAVAWYQQKPGQSPKLLIYWASTRHTGVPDRFTGSGSGTDFTLTISNVQSEDLADYFCQQYSSYPLTFGAGTKLELKR
notes: as for B1
B7: S009-F8-13.8 (antibody, human IgG1, kappa, V domains shown)
VH: EFQLQQSGPELVKPGASVKISCKASGYSFTDYNMNWVKQTNGKSLEWIGIINPNYGTSSYNQKFKGKATLTVDQSSSTAYMQLNSLTSEDSAVYYCARVGRDNSGFDYWGQGTTLTVSS
VL: QIVLTQSPAIMSASPGEKVTMTCSASSSVSYMYWYQQKPGSSPRLLIYDTSNLASGVPVRFSGSGSGTSYSLTISRMEAEDAATYYCQQWSSYPPTFGSGTELEIKR
notes: as for B1

How the values were obtained:
[1] = target: T1, human MSLN-FL-his protein (human, UniProt Q13421 296-580); assay: competitive ELISA; row F8-13.8; further: test concentration or dose not given here
T1 construct: made in HEK293E cells, purified on nickel column; also called hMSLN-FL-his; human MSLN full-length protein; not shown: His tag
T1 sequence (Q13421 other isoform, or with tags, fused parts or gaps): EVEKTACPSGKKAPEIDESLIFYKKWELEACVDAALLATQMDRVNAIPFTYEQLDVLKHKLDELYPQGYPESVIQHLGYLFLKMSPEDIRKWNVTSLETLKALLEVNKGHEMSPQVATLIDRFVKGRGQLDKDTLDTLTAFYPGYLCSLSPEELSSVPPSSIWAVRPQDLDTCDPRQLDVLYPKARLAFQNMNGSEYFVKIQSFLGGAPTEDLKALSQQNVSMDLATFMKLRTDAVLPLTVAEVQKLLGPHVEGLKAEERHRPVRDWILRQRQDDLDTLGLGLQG

[2] = target: T1, human MSLN-FL-his protein; assay: competitive ELISA; row F8-5.15; further: test concentration or dose not given here
[3] = target: T1, human MSLN-FL-his protein; assay: competitive ELISA; row F8-12.13; further: test concentration or dose not given here
[4] = target: T1, human MSLN-FL-his protein; assay: competitive ELISA; row F8-15.19; further: test concentration or dose not given here
[5] = target: T1, human MSLN-FL-his protein; assay: SPR (Biacore), antibody captured on Protein A chip;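 further: flow cell at 25 °C, antigen injected for 240 s at five concentrations from 200 nM downward, dissociation followed up to 600 s, double-referenced, fitted with Langmuir 1:1 model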
[6] = target: T1, human MSLN-FL-his protein; assay: competitive ELISA; row F8-19.21; further: test concentration or dose not given here
[7] = target: T2, human MSLN protein endogenously expressed on OVCAR3 tumor cells (human, UniProt Q13421 296-598); assay: FACS on OVCAR3 cells;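 further: flow cytometry of chimeric antibody binding to OVCAR3 cells, 2 h on ice, read as cellular mean fluorescence intensity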
T2 construct: whole, on cells; endogenous expression on a tumor cell line; also called human mesothelin
T2 sequence (Q13421 other isoform, or with tags, fused parts or gaps): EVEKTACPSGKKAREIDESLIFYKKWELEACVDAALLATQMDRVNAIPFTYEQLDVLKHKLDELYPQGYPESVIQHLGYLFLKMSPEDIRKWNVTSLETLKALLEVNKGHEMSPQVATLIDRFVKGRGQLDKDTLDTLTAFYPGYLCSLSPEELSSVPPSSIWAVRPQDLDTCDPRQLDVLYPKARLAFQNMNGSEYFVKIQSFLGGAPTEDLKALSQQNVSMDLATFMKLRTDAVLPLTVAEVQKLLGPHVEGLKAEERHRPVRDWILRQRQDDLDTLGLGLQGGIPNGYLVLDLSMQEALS

[8] = target: T1, human MSLN-FL-his protein; assay: competitive ELISA; row Tab142; further: test concentration or dose not given here
[9] = target: T1, human MSLN-FL-his protein; assay: competitive ELISA; row F8-18.9; further: test concentration or dose not given here
[10] = target: T1, human MSLN-FL-his protein; assay: competitive ELISA; row F8-7.5; further: test concentration or dose not given here
[11] = target: T1, human MSLN-FL-his protein; assay: competitive ELISA; row Tab021; further: test concentration or dose not given here
[12] = target: T1, human MSLN-FL-his protein; assay: competitive ELISA; row F8-31.22; further: test concentration or dose not given here
[13] = target: T1, human MSLN-FL-his protein; assay: competitive ELISA; row F8-4.5; further: test concentration or dose not given here
[14] = target: T3, human MSLN-R3 protein expressed on HEK293T cells (HEK293T-hMSLN-R3) (human, UniProt Q13421 487-606); assay: FACS on HEK293T-hMSLN-R3 cells;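 further: chimeric antibodies incubated with cells on ice for 2 h, binding read by flow cytometry as mean fluorescence intensity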
T3 construct: C-terminal limit uncertain
T3 sequence (Q13421 495-614): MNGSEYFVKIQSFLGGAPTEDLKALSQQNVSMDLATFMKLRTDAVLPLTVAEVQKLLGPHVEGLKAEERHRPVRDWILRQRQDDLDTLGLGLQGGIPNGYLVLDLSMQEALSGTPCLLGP

[15] = target: T1, human MSLN-FL-his protein; assay: competitive ELISA; row F8-27.1; further: test concentration or dose not given here

Binder | competition rate [1] | competition rate [2] | competition rate [3] | competition rate [4] | Kd [5] | koff [5] | kon [5] | competition rate [6] | EC50 [7] | Maximum mean fluorescence intensity [7] | competition rate [8] | competition rate [9] | competition rate [10] | competition rate [11] | competition rate [12] | competition rate [13] | Maximum mean fluorescence intensity [14] | binding result [14] | competition rate [15]
B1 | 3.15% | 83.3% | -23.2% | -15.7% | 92.6 nM | 0.0215 s⁻¹ | 232000 M⁻¹ s⁻¹ | 14.7% | 0.71 nM | 8990 | 2.16% | 11.2% | 85.8% | 14.2% | -71.5% | 3.24% | 279 | no binding | 3.35%
B2 | 74.6% | 99.8% | 98.7% | 99.2% | 1.95 nM | 0.000234 s⁻¹ | 120000 M⁻¹ s⁻¹ | 90.2% | 77.9 nM | 7620 | 86.2% | -2.77% | -9.43% | 12.2% | -13.1% | 92% | 120 | no binding | 95.3%
B3 | 95.8% | 100% | 98.9% | 100% | 0.824 nM | 0.000599 s⁻¹ | 727000 M⁻¹ s⁻¹ | 98.9% | 4.93 nM | 14000 | 97.8% | 8.32% | 23.6% | 9.76% | 89.7% | 97.5% | 192 | no binding | 99.8%
B4 | 77.5% | 99.7% | 97.2% | 99.5% | 3.17 nM | 0.000876 s⁻¹ | 276000 M⁻¹ s⁻¹ | 91.3% | 24.1 nM | 10800 | 85.5% | 6.6% | -116% | 2.63% | 98% | 83.3% | 131 | no binding | 96.8%
B5 | 82% | 99.5% | 97.3% | 99.8% | 1.98 nM | 0.00172 s⁻¹ | 871000 M⁻¹ s⁻¹ | 95.4% | 5.13 nM | 13000 | 92.2% | 6.96% | -137% | 4.93% | 98.5% | 89.7% | 98 | no binding | 98.4%
B6 | 51.1% | 99.3% | 93.7% | 98.5% | 5.5 nM | 0.00296 s⁻¹ | 539000 M⁻¹ s⁻¹ | 75.9% | 2.24 nM | 9830 | 65.5% | 10.1% | -135% | 6.56% | 92.2% | 88.2% | 135 | no binding | 93.5%
B7 | 86.2% | 99.9% | 97.9% | 99.8% | 0.95 nM | 0.00125 s⁻¹ | 1.31e+06 M⁻¹ s⁻¹ | 96.5% | 1.42 nM | 13000 | 93.8% | 11.3% | -135% | 14.2% | 99% | 93% | 95 | no binding | 98.4%
